Experiment: yeast display, Sf9 membrane polyspecificity reagent, FACS + sequencing; frameworks hold sequencing errors
How it was run: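 Nanobodies came from a synthetic yeast display library in Saccharomyces cerevisiae BJ5465, induced with galactose for 36–48 hours and stained for 1 hour at 4 °C with 10% biotinylated, detergent-solubilized Sf9 membrane reagent. Cells were enriched on streptavidin microbeads and then FACS-sorted, with low and high (top ~1%) gates set on anti-HA fluorescence for expression and streptavidin fluorescence for reagent binding. Each polyreactivity label reflects the gate a clone came from. Genes were amplified by colony PCR, sequenced by MiSeq 2 × 250 and filtered by CDR length.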

Row | Sequence | polyreactivity (PSR sort gate)
1 | QVQLVESGGGLVQAGGSLRLSFAASGLIGRYAMGWYRQAPGKERELVAVITSGDSTYYADSVKGRFTISRDNAKNTVYLQMNSLKQEDTAVYYCAADSYRRWGNLFTGNEYDSWGQGTQVTVSS | low polyreactivity
2 | QVQLVESGGGLVQAGGSLRLSFAASGLIVTGYAMGWYRQRPGKEREVVAAITSGGGTNYADSVKGRFTISRDNAKNTVDLQMNSLKPEDTAVYYCAVDFGHYYLYSITSYLWYWDGYDYWGQGTQVTVSS | low polyreactivity
3 | QVQLVESGGGLVQAGGSLRLSFAASGNIFSFNDMGWYRQAPGQERELVAAITSSDSTNYADSVKGRFTISRDNAKNTVYLQMNSLKPEDTAVYYCATEILTAARETVVYQFYLGYYYWGQGTQVTVSS | low polyreactivity
4 | QVQLVESGGGLVQAGGSLRLSFAASGRIFDYNVMGWYRQAPGKERELVADITSSGGATYYADSVKGRFTNSRDNAKNTVYLQMNSLKPEDTAVYYCYISYFTFYDDFYYWGQGTQVTVSS | low polyreactivity
5 | QVQLVESGGGLVQAGGSLRLSFAASGRTFLVYAMGWYRQAPGKERELVAGITSGGGTYYADSVKGRFTISRDNAKNTVYLQMNSLKPEDTAVYYCAKYRWYGVYWGQGTQVTVSS | low polyreactivity
6 | QVQLVESGGGLVQAGGSLRLSFAASGRTFPDNAMGWYRQAPGTQRELVATISWSGGSTYYADSVKGRFTISRDNAKNTVYLQMNSLKPEDTAVYYCARDSLQVFYPYASDDYWGQGTQVTVSS | low polyreactivity
7 | QVQLVESGGGLVQAGGSLRLSFAASGRTFSGYAMGWYRQAPGKERELVASISGSGSSTYYADSVKGRFTISRDNAKNTVYLQMNSLKPEHTAVYYCNATRAGENPDGGDEYWGQGTQVTVSS | high polyreactivity
8 | QVQLVESGGGLVQAGGSLRLSFAASGRTFTYNAMGVYRQAPGKERELVAAMTYRGGSTYYADSVKGRFTISRDNAKNTVYLQMNSLKPEDTAVYYCAARVSYYRYNTPHYYYWGQGTQVTVSS | high polyreactivity
9 | QVQLVESGGGLVQAGGSLRLSFAASGRTFYGYAMGWYRQAPGKERELVASIRQSAGRTYYADSVKGRFTISRDISKNTVYLVMNSLKPEDSAVYYCAASIFLRSFYQQGNYWGQGTHVTVSS | high polyreactivity
10 | QVQLVESGGGLVQAGGSLRLSFAASGRTFYINDMGWYRQAPGKERELVAAITWRGGSTYYADSVKGRFTISRDNAMNTVYLQMNSLKPEDTAVYYCAAYISLYWWYDYWGQGTQVTVSS | low polyreactivity
11 | QVQLVESGGGLVQAGGSLRLSFAASGSIFKGNVMGWYRQAPGKERELVAGISRRGTSTYYADSVKGRFTISRDNAKNSVYLQMNSLKPEDSAVYYCAKRYYTYGYDYWGQGTQVTVSS | high polyreactivity
12 | QVQLVESGGGLVQAGGSLRLSFAASGSIFRYYVMGWYRQAPGKERELVAAISSGGRTYYADSVKGRFTISRDNAKNTVYLQMNSLKPEDTAVYYCNAQGLFYWEMDYWGQGTQVTVSS | high polyreactivity
13 | QVQLVESGGGLVQAGGSLRLSFAASGSNFAVKAMGLNTPAPGKERELVATITRRDGSTYYADSVKGRFTISRDNAKYTVYLQLNSLKPEDTAVYYCNARLKRTYDYWGQGTQVTVSS | high polyreactivity
14 | QVQLVESGGGLVQAGGSLRLSFAASGSNFYIYAMGWYRQAPGKERELVAAITSGGNTYYVDSVKGRFTISRDNAKNTVYFQMNSLKPEDTAVYYCAAELYDRWSRMDYWGQGTQVTVSS | low polyreactivity
15 | QVQLVESGGGLVQAGGSLRLSFAASGSTFKFNAMGWYRQAPGKERELVATITSRGSRTYYADSVKGRFTISRDNAKNTVYLQMNSLKPEDTAVYYCAKVSKRVGFPTAMNYWGQGTQVTVSS | high polyreactivity
16 | QVQLVESGGGLVQAGGSLRLSFAASGSTIGDNAMGWYRQAPGKERELVAVITSDTSTYYADSVKGRFTISRDNAMNTVYLQMNSLKPEDTAVYYCAADWGGLWFWYEYWGQGTQVTVSS | low polyreactivity
17 | QVQLVESGGGLVQAGGSLRLSFAASGSTLGQNAMGWYRQARGKERELVAASSSGGRTYYADSVKGRFTISRDNAKNTVYLQMNSLNPEDTAVYYCNAVAYSLSGYNSWGQGTQVTVSS | high polyreactivity

Source: the nanobody polyreactivity screen of Harvey et al. (2022)
